The series has as its system MS2 coat protein. Put plainly: apparent KD of MS2 coat protein; designed switch direction (-1 OFF switch, 1 ON switch): -1; higher = weaker reporter binding. The method, boiled down: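 The buffer was Tris-HCl pH 7.5 with KCl, MgCl2, BSA, DTT, tRNA and Tween-20. In it, SNAP-549-labelled MS2 coat protein was titrated in doubling steps from 0.7 or 1.5 nM to 3 µM over chip-bound RNA switches transcribed by stalled E. coli RNA polymerase on Illumina chips. Apparent KD is the per-design median over clusters of curve fits to normalised fluorescence.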

[1] abbreviates: Eterna round: R95, input ligand: FMN 200 uM.
[2] abbreviates: Eterna round: R95, input ligand: microRNA oligo, concentration not stated.
[3] abbreviates: Eterna round: R95, input ligand: none.
Setting [4] is: input ligand: microRNA oligo, concentration not stated.

With “GAAUAGAGAGGAUAUGCGAUGUAGGUAGUACGAUAUAUCUGACAUGAGGAUCACCCAUGUAGAAGGCUCAGAUC [EX2 #6] (Eterna round: R97, puzzle: Exclusion 2)”, the “apparent KD of MS2 coat protein” value runs as follows: (input ligand: FMN 200 uM) 33.9 nM; (input ligand: none) 36.4 nM.
As to “CGUGUCUUUUACGUGAGUGGUGGGUGCAACAGGUGGGUUACAUGAGGAUCACCCAUGUGCUCACUUGCUCGUCUUUU [Grok-var2-09] (puzzle: Sensor v3, turn-off variant 2)”, the “apparent KD of MS2 coat protein” value is, setting by setting: under setting [1], 60.7 nM; under setting [2], 39.3 nM; under setting [3], 58.1 nM.
As for “ACAUGAGGAUCACCCAUGUCUGGCUGGUCUGUUCCGGCUGUUGAGGAUAUAGUCCGGUGUUCGCGCUAGAAGGUGAGGGCUGGA [Aenatbe mod 43] (Eterna round: R96, puzzle: Exclusion NG 3)”, the “apparent KD of MS2 coat protein” value (input ligand: FMN 200 uM) was found to be 54.5 nM, the “apparent KD of MS2 coat protein” value under setting [4] is 32.9 nM and the “apparent KD of MS2 coat protein” value (input ligand: none) came to 57 nM.
Regarding “CCAAGCUGUGUGAGGAUAUGCUGGUCCUUGGAUCAGCAGAAGGCACAUGAGGAUCACCCAUGUGAAAAGCUUGG [Mat - Exclusion 4 - JL Mod - D92] (puzzle: Brourd's mod of Exclusion 4)”, the “apparent KD of MS2 coat protein” value under setting [2] worked out at 13.8 nM.
As for “CCUUCUCCACAGGAUAUGCUCAUCUAAUGAUGAGCAGAAGGGUGGACAUGAGGAUCACCCAUGUUUAUCAAUGG [Omei Ex6 D2] (Eterna round: R97, puzzle: Exclusion 6)”, the “apparent KD of MS2 coat protein” value runs as follows: (input ligand: FMN 200 uM) 589 nM; (input ligand: none) 428 nM.
For the sequence “UUUAAUUGUCAGAUGGGUGACAUGAGGAUCACCCAUGUCACAAGCUUUUUGCUCGUCUUAUAAUUAACCCAUCUGAC [Stov1/11-A1] (Eterna round: R97, puzzle: Sensor, turn-off variant 1)”, the “apparent KD of MS2 coat protein” value reads like this: (input ligand: FMN 200 uM) 13.5 nM; (input ligand: none) 12.3 nM.
“UACAUGAGGAUCACCCAUGUUUUGUCGUGUAUGGUAUUUAUCUAGGAUAUCAUUUUAUUUAGUUAUGAGAAGGAGAAUAUUAAU [JMF's solution 79] (Eterna round: R96, puzzle: Exclusion NG 3)”: under setting [4], the “apparent KD of MS2 coat protein” value amounted to 36.1 nM.
Take “GAAAAGGUAGGAUAUACGAAAAAAAAGGGUAGAAAAAAAACACAUGAGGAUCACCCAUGUAGAAGGACCAAAAG [Mat - Exclusion 2 - Tesla mod - D30] (Eterna round: R96, puzzle: Exclusion 2)”: the “apparent KD of MS2 coat protein” value under setting [4] amounted to 25.3 nM.
Take “GGUACUCAAAGAGUACCAAUACGAACAUGAGGAUCACCCAUGUAGGAUAUGCUACUCAAAGAGUAGCAGAAGGACAUGUACCUU [Far Half Aptamer v6] (Eterna round: R96, puzzle: Exclusion NG 3)”: the “apparent KD of MS2 coat protein” value (input ligand: FMN 200 uM) amounted to 227 nM, the “apparent KD of MS2 coat protein” value under setting [4] was 19.7 nM and the “apparent KD of MS2 coat protein” value (input ligand: none) stood at 29.5 nM.
“CCGGAUAUGCAGGAUAUCGUAUCGGAGACGAUACGAGAAGGGUAUACAUGAGGAUCACCCAUGUGCCUUACCGG [Mat - Exclusion 6 - Eli Mod - D82] (puzzle: Exclusion 6)”: the “apparent KD of MS2 coat protein” value by setting is: under setting [1], 23.3 nM; under setting [2], 19 nM; under setting [3], 20.7 nM.
With “GAACGCCGGCAGGAUAUGGACAGCCAAAAGGCGCCAGAAGGGCCAACAUGAGGAUCACCCAUGUGUCCUGAUGG [Riceanon] (puzzle: Exclusion 6)”, the “apparent KD of MS2 coat protein” value under setting [1] came to 10.9 nM, the “apparent KD of MS2 coat protein” value under setting [2] was 8.46 nM and the “apparent KD of MS2 coat protein” value under setting [3] is 10.3 nM.
With “UCGGGCUCAGAGGAUAUGGGCGAAAAUAUAAAACCAGAAGGCUGAACUUGAGGAUCACCCAAGUACGGGCAAAA [Inxeridi] (Eterna round: R97, puzzle: Exclusion 6)”, the “apparent KD of MS2 coat protein” value (input ligand: FMN 200 uM) stood at 143 nM and the “apparent KD of MS2 coat protein” value (input ligand: none) was found to be 67.9 nM.
As to “CUCAUGUGAGGAUAUGUGAUCUGCUUUCUGUGUAGAUGAUCACAGAAGGCACAUGAGGAUCACCCAUGUAGAUC [Ex4 - 3 - 28] (puzzle: Exclusion 4)”, the “apparent KD of MS2 coat protein” value under setting [2] was 67.5 nM.
As for “GCGCACCUACCAAAAGGUAGGCCAACAUGAGGAUCACCCAUGUAGGAUAUCGAUUGCUUUGCAGUCGAGAAGGACAUGAUGCGC [JL ENG3 3.80 Mod 8] (Eterna round: R96, puzzle: Exclusion NG 3)”, the “apparent KD of MS2 coat protein” value is, setting by setting: (input ligand: FMN 200 uM) 33.8 nM; under setting [4], 15.4 nM; (input ligand: none) 21.6 nM.
For “GCACGGAGUGUAGGAUAUCUGUGCGAUUAGCUCAGAGAAGGACACAUGAGGAUCACCCAUGUGUAACUCAAUACUCAUCCGUGC [Eli exng1 - 070] (Eterna round: R96, puzzle: Exclusion NG 1)”, in that order: 8.06 nM, 9.18 nM and 13.9 nM.
Take “UACAUGAGGAUCACCCAUGUUUUGUCGUGUAUGGUAUUUAUCUAGGAUAUCAAUCUAAUUAUUUAUGAGAAGGAGAAUAUUAAU [JMF's solution 50] (Eterna round: R96, puzzle: Exclusion NG 3)”: the “apparent KD of MS2 coat protein” value reads like this: (input ligand: FMN 200 uM) 47.9 nM; under setting [4], 31.2 nM; (input ligand: none) 42.4 nM.
Turning to “GUUAUGUCAGGAUAUGCUAAUGAUGAGUGCUCAGACAUGAUGCAGAAGGGACAUGAGGAUCACCCAUGUACUAA [EX4 #11] (Eterna round: R97, puzzle: Exclusion 4)”, the “apparent KD of MS2 coat protein” value runs as follows: (input ligand: FMN 200 uM) 116 nM; (input ligand: none) 36.1 nM.
Take “CUAGUCCGAGGAUAUAUUAUGUGAAACAUGAGGAUCACCCAUGUAAUAUGAUGGAAAUAAAUAGAAGGCGGACUAG [Mat - Exclusion 5 - JL mod - D33] (puzzle: Exclusion 5)”: the “apparent KD of MS2 coat protein” value runs as follows: under setting [1], 25.7 nM; under setting [2], 30.9 nM; under setting [3], 30.2 nM.
Consider “UUGCAGUCGUCAGGAUAUAGUAUUACGGCCUUUUAUUUUUUCAUACAUGAGGAUCACCCAUGUCGCUAGAAGGGAUUAUCGAUU [salish99_ExNG2_r04_104] (Eterna round: R96, puzzle: Exclusion NG 2)”, for which the “apparent KD of MS2 coat protein” value turned out to be 39.6 nM (input ligand: FMN 200 uM), 31.6 nM under setting [4] and 41.4 nM (input ligand: none).
In the case of “AAACCCUGAGGAUAUAGAUAACAACAAAGCCUCACGUGCCAACAUGAGGAUCACCCAUGUAGAAGGCAGGCCAA [Mod R3 Insanara 4 - Jieux - Exclusion 2] (Eterna round: R97, puzzle: Exclusion 2)”, the “apparent KD of MS2 coat protein” value (input ligand: FMN 200 uM) worked out at 14.7 nM and the “apparent KD of MS2 coat protein” value (input ligand: none) worked out at 17.2 nM.
For the sequence “UUAGCGUAAGUAAGGAUAUGCUGGUCUAAUGAUCAGCAGAAGGUACAUGAGGAUCACCCAUGUGGAUUCGUUAU [Mod of JL 10 - Jieux - Brourd's mod of Exclusion 4] (Eterna round: R97, puzzle: Brourd's mod of Exclusion 4)”, the “apparent KD of MS2 coat protein” value by setting is: (input ligand: FMN 200 uM) 35.8 nM; (input ligand: none) 19.2 nM.
As to “GCAUCCAAUGUGAGGAUAUACCUCUGGAUACAUAGGUAGAAGGCACAUGAGGAUCACCCAUGUUCCAAGGAUGC [Fiskers BMX 4 - 30] (puzzle: Brourd's mod of Exclusion 4)”, the “apparent KD of MS2 coat protein” value stood at 183 nM under setting [1], 65 nM under setting [2] and 82 nM under setting [3].
On to “AUAAUCGUAGGAUAUCAUUAGCCCUACAUGAGGAUCACCCAUGUGGGCUGGUGAGGGCGGUGAGAAGGACGAGAGA [EX5 B.1] (Eterna round: R97, puzzle: Exclusion 5)”, for which the “apparent KD of MS2 coat protein” value is, setting by setting: (input ligand: FMN 200 uM) 25.1 nM; (input ligand: none) 18.4 nM.
Take “UAUAUAUAGUAAGGAUAUGUAUUUAUUUAAUAAACAGAAGGUACUGACAUGAGGAUCACCCAUGUUUUAGUGUGGGCAUGUAGA [JMF's solution 19] (Eterna round: R96, puzzle: Exclusion NG 1)”: the “apparent KD of MS2 coat protein” value under setting [4] is 66.3 nM.
“UUUUAACAUGAGGAUCACCCAUGUGAGGAUAUCGUUUUUUUUUUUUUUUUUUUUUUUUCGAGAAGGCACAUUUU [My solution] (puzzle: Exclusion 1)”: the “apparent KD of MS2 coat protein” value came out at 127 nM under setting [1], 84 nM under setting [2] and 14 nM under setting [3].
As for “GAAGAAAACCAAGGAUAUCGGAAAGGAAGUGUACGAGAAGGUGGACAUGGACAUGAGGAUCACCCAUGUGGCCCGAUGCCGUGG [PowerStrip EXNG 1.5] (Eterna round: R96, puzzle: Exclusion NG 1)”, the “apparent KD of MS2 coat protein” value (input ligand: FMN 200 uM) is 54.8 nM, the “apparent KD of MS2 coat protein” value under setting [4] was determined as 33.5 nM and the “apparent KD of MS2 coat protein” value (input ligand: none) was 38.1 nM.
On the same counts, the results for “CCAGAGUGAGGAUAUGCAUAAAGGUGCUGUCCCGUGGCUUGACAUGAGGAUCACCCAUGUAGAAGGUGCGUUGU [Raonra] (Eterna round: R96, puzzle: Exclusion 2)” are 51.6 nM, 35.6 nM and 54.4 nM.
Turning to “UAGAUACAUGAGGAUCACCCAUGUGAGGAUAUGAGGGUUAGCUUAAAUGGGCUGACUUUCAGAAGGCACAAGAA [JR_Ex1_Sub057] (Eterna round: R97, puzzle: Exclusion 1)”, the “apparent KD of MS2 coat protein” value came out at 94.7 nM (input ligand: FMN 200 uM) and 43 nM (input ligand: none).
“AGUCCUGGAGUUAGGAUAUGGAGUAUCACUGCACUUCAGAAGGGACUUGAGGAUCACCCAAGUAGCCGUGAGGG [salish99_bmod_ex4_r4_004] (Eterna round: R97, puzzle: Brourd's mod of Exclusion 4)”: the “apparent KD of MS2 coat protein” value came to 74.3 nM (input ligand: FMN 200 uM) and 49.2 nM (input ligand: none).
On to “ACAACAAGCUUUUUGUUCGUAGAACAUGAUGCUCUAGUCACAUGAGGAUCACCCAUGUCAACUAGAUAGAUAGUUGA [JR_SV3TOV2_Sub062] (puzzle: Sensor v3, turn-off variant 2)”, for which the “apparent KD of MS2 coat protein” value was 43 nM under setting [1], 95.7 nM under setting [2] and 44.1 nM under setting [3].

These data come from the supplement of paper PMC9170038.
